Assays:
[1] = biological target: T1, human IL-23R (human, UniProt Q5VWK5 24-353, limits assumed); test: KinExA, full-length chimeric antibody
T1 construct: also called huIL-23R; human interleukin-23R
T1 sequence: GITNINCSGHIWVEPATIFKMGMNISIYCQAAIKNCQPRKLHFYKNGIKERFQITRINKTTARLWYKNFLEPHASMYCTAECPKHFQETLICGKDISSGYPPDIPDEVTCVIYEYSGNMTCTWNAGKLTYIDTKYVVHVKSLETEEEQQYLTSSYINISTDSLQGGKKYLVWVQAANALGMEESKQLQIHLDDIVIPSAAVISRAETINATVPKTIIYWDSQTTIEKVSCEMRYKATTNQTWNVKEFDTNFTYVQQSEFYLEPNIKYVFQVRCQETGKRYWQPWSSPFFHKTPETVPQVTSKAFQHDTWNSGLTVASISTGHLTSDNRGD
Procedure: (§1) The equilibrium dissociation constants (Kd) for anti human IL-23R antibodies are determined using the KinExA. 3000 instrument. Sapidyne Instruments Inc., Boise Id., USA. KinExA uses the principle of the Kinetic Exclusion Assay method based on measuring the concentration of uncomplexed antibody in a mixture of antibody, antigen and antibody-antigen complex. The concentration of free antibody is measured by exposing the mixture to a solid-phase immobilized antigen for a very brief period of time. In practice, this is accomplished by flowing the solution phase antigen-antibody mixture past antigen-coated particles trapped in a flow cell. Data generated by the instrument are analyzed using custom software. Equilibrium constants are calculated using a mathematical theory based on the lowing assumptions: [0177] 1. The binding follows the reversible binding equation for equilibrium: […]
(§2) PMMA particles (Sapidyne, Cat No. 440198) are coated with biotinylated IL-23R (or a fragment thereof, such as the extracellular domain) according to Sapidyne “Protocol for coating PMMA particles with biotinylated ligands having short or nonexistent linker arms.” EZ-link TFP PEO-biotin (Pierce, Cat. No. 21219) is used to make biotinylated IL-23R, as per the manufacturer's recommendations (Pierce bulletin 0874). […]

[2] = biological target: T1, human IL-23R; test: KinExA, full-length chimeric antibody; N31T variant, full-length chimeric
Procedure: as §1, §2

fold improvement in binding affinity against the original sequence [1]: 3 fold
Kd [2]: 8 pM
B1: full-length chimeric 8B10 antibody, VL N31T (antibody, V domains shown)
VH: EVKLVESGGGLEQPKGSLKLSCTVSGFDFNSYGMSWVRQAPGKGLDLVADINSKSYNYATYYADSVKDRFTISRDDSQSMVYLEMDNLKTEDTALYYCTVHHSDYFEYWGQGVMVTVSS
VL: DIQMTQSPASLSASLGETVSIECLASEDIYTNLAWYQQKPGKSPQLLIYHASSLQDGVPSRFSGSGSGTQYSLKINSLESEDAATYFCLQDSEYPPTFGGGTKLELKR
notes: also called N31T variant

— patent US20110158992A1 (SCHERING, published 2011)
